Values quoted from earlier work, collected in article PMC6008173.

Target: PCDH15 EC1-2 (Mus musculus) (UniProt Q99PJ1)

Kd: 3000 nM
Substance: CDH23 EC1-2 (from UniProt Q99PF4)
